Values of other authors as cited in article PMC4964448.

Assays:
PSGL-1 (Homo sapiens) = PSGL-1 (Homo sapiens) (UniProt Q14242)
MMP9 (Homo sapiens) = MMP9 (Homo sapiens) (UniProt P14780)
Chain of UniProt P14780 (P14780 94-707): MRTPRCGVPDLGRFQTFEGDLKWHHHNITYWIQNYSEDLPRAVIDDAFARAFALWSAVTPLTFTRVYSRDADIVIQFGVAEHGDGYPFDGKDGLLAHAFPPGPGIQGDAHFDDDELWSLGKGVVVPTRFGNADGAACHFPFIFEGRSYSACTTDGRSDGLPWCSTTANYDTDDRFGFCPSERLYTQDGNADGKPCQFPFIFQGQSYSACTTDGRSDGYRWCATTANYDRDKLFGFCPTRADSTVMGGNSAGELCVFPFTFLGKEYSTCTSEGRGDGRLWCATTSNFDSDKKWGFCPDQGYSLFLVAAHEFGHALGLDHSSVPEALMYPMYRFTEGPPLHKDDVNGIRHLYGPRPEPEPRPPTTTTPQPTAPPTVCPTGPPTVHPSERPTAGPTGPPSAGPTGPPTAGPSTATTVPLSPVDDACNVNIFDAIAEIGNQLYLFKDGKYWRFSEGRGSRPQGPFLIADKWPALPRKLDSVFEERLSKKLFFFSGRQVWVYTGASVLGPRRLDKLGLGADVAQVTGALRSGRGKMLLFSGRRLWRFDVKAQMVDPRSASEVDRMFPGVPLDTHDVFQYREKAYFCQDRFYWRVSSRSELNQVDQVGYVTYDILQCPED

Chain of UniProt Q14242 (Q14242 42-320): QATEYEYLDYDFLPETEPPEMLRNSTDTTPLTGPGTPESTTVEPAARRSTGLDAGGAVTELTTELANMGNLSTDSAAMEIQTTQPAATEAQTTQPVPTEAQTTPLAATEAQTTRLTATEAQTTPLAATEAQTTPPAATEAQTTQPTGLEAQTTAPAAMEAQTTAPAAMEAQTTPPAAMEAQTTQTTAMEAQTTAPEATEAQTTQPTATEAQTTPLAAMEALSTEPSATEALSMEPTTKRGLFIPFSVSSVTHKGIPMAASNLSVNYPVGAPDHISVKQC

Substance: SSL5 (from UniProt Q2G1S6)
- Kd (PSGL-1 (Homo sapiens)): 0.82 µM
- Kd (MMP9 (Homo sapiens)): 0.0019 µM
